Experimental data taken from the Immune Epitope Database (IEDB).
Each block holds one sequence with its values, some of them ahead of it.

What was measured:
HLA-A*31:01 = assay: IEDB peptide-MHC binding, purified MHC/direct/fluorescence; filed as Kd, often an IC50 or EC50 that approximates it; ≥ and ≤ were set here for values at or beyond the usual limits of such assays
HLA-B*27:05 = assay: as above
HLA-A*26:01 = assay: as above
HLA-B*58:01 = assay: as above
HLA-A*69:01 [1] = assay: as above
HLA-B*44:02 = assay: as above
HLA-B*07:02 = assay: as above
HLA-B*40:01 = assay: as above
HLA-A*01:01 = assay: as above
HLA-A*03:01 = assay: as above
HLA-B*08:01 = assay: as above
HLA-B*15:01 [2] = assay: as above
HLA-A*02:01 [3] = assay: as above
HLA-A*11:01 = assay: as above
HLA-A*24:03 = assay: as above
HLA-B*15:01 [4] = assay: IEDB peptide-MHC binding, purified MHC/competitive/radioactivity; filed as Kd, often an IC50 or EC50 that approximates it; ≥ and ≤ were set here for values at or beyond the usual limits of such assays
HLA-A*24:02 = assay: IEDB peptide-MHC binding, purified MHC/competitive/fluorescence; ≥ and ≤ were set here for values at or beyond the usual limits of such assays
HLA-A*02:01 [5] = assay: as above
HLA-B*53:01 = assay: IEDB peptide-MHC binding, purified MHC/competitive/radioactivity; filed as Kd, often an IC50 or EC50 that approximates it; ≥ and ≤ were set here for values at or beyond the usual limits of such assays
HLA-B*51:01 = assay: as above; settings: source organism: Dengue virus 1 Brazil/97-11/1997
HLA-B*15:17 = assay: IEDB peptide-MHC binding, purified MHC/competitive/fluorescence; filed as Kd, often an IC50 or EC50 that approximates it; ≥ and ≤ were set here for values at or beyond the usual limits of such assays; settings: source organism: Homo sapiens
HLA-A*69:01 [6] = assay: as above; settings: source organism: Homo sapiens
HLA-B*39:01 = assay: as above; settings: source organism: Homo sapiens
HLA-A*32:01 = assay: IEDB peptide-MHC binding, purified MHC/competitive/radioactivity; filed as Kd, often an IC50 or EC50 that approximates it; ≥ and ≤ were set here for values at or beyond the usual limits of such assays; settings: source organism: Dengue virus 4 Philippines/H241/1956
[7] = source organism: Brucella abortus
[8] = source organism: Giardia lamblia ATCC 50803
[9] = source organism: Vaccinia virus WR
[10] = source organism: Zaire ebolavirus
[11] = source organism: Dengue virus 4 Philippines/H241/1956
[12] = source organism: Pseudomonas viridiflava
[13] = source organism: Vibrio parahaemolyticus

Sequence: AENGWGFYF
Kd (HLA-A*31:01; [7]): ≥ 20 µM
Kd (HLA-B*27:05; [7]): ≥ 20 µM
Kd (HLA-A*26:01; [7]): ≥ 20 µM
Kd (HLA-B*58:01; [7]): ≥ 20 µM
Kd (HLA-A*69:01 [1]; [7]): ≥ 20 µM
Kd (HLA-B*44:02; [7]): 6.42 µM
Kd (HLA-B*07:02; [7]): ≥ 20 µM
Kd (HLA-B*40:01; source organism: Brucella suis): 0.0289 µM
Kd (HLA-A*01:01; [7]): ≥ 20 µM
Kd (HLA-A*03:01; [7]): ≥ 20 µM
Kd (HLA-B*08:01; [7]): ≥ 20 µM
Kd (HLA-B*15:01 [2]; source organism: Brucella suis): 0.285 µM
Kd (HLA-A*02:01 [3]; [7]): ≥ 20 µM
Kd (HLA-A*11:01; [7]): ≥ 20 µM

Sequence: ATPPSLVHF
Kd (HLA-A*24:03; [8]): 0.152 µM

Sequence: AVFMLMETM
Kd (HLA-B*15:01 [4]; [9]): 0.026 µM

Sequence: CLHHAYQGD
IC50 (HLA-A*24:02; [10]): ≥ 92 µM
IC50 (HLA-A*02:01 [5]; [10]): ≥ 119 µM

Sequence: CPNERRAWNF
Kd (HLA-B*53:01; [11]): 0.0706 µM

Sequence: DPRRCLKPVI
Kd (HLA-B*51:01): 10.5 µM

Sequence: DPSSGYYST
IC50 (HLA-A*24:02; [10]): ≥ 151 µM

Kd (HLA-A*31:01; [12]): ≥ 20 µM
Kd (HLA-B*27:05; [12]): ≥ 20 µM
Kd (HLA-A*26:01; [12]): ≥ 20 µM
Kd (HLA-B*58:01; [12]): ≥ 20 µM
Kd (HLA-A*69:01 [1]; [12]): ≥ 20 µM
Kd (HLA-B*07:02; [12]): ≥ 20 µM
Kd (HLA-B*40:01; [12]): ≥ 20 µM
Kd (HLA-A*01:01; [12]): ≥ 20 µM
Kd (HLA-A*24:03; [12]): ≥ 20 µM
Kd (HLA-A*03:01; [12]): ≥ 20 µM
Kd (HLA-B*08:01; [12]): ≥ 20 µM
Kd (HLA-B*15:01 [2]; [12]): ≥ 20 µM
Kd (HLA-A*02:01 [3]; [12]): ≥ 20 µM
Kd (HLA-A*11:01; [12]): ≥ 20 µM
Sequence: DYDQRDYGF

Sequence: EIPGSPGSY
Kd (HLA-A*31:01; [13]): ≥ 20 µM
Kd (HLA-B*27:05; [13]): ≥ 20 µM
Kd (HLA-A*26:01; [13]): 0.105 µM
Kd (HLA-B*58:01; [13]): ≥ 20 µM
Kd (HLA-A*69:01 [1]; [13]): ≥ 20 µM
Kd (HLA-B*44:02; [13]): ≥ 20 µM
Kd (HLA-B*07:02; [13]): ≥ 20 µM
Kd (HLA-B*40:01; [13]): ≥ 20 µM
Kd (HLA-A*01:01; [13]): ≥ 20 µM
Kd (HLA-A*03:01; [13]): ≥ 20 µM
Kd (HLA-B*08:01; [13]): ≥ 20 µM
Kd (HLA-B*15:01 [2]; [13]): ≥ 20 µM
Kd (HLA-A*02:01 [3]; [13]): ≥ 20 µM
Kd (HLA-A*11:01; [13]): ≥ 20 µM

Sequence: FLLQLNETI
IC50 (HLA-A*24:02; [10]): 0.862 µM
IC50 (HLA-A*02:01 [5]; [10]): 0.33 µM

Sequence: GGILPWTKI
IC50 (HLA-A*24:02; [9]): ≥ 78.1 µM
IC50 (HLA-A*02:01 [5]; [9]): ≥ 125 µM

Kd (HLA-B*15:17): ≥ 20 µM
Kd (HLA-A*69:01 [6]): ≥ 20 µM
Kd (HLA-B*39:01): ≥ 20 µM
Sequence: GPSPSHKSV

Sequence: GTLALSLTF
Kd (HLA-A*32:01): 1.37 µM
Kd (HLA-B*15:01 [4]; [11]): 0.0362 µM

Sequence: HPGFTILALF
Kd (HLA-B*53:01; source organism: Dengue virus 3 Martinique/1243/1999): 0.00104 µM

Sequence: IHKPRPPAT
Kd (HLA-A*31:01; [8]): ≥ 20 µM
Kd (HLA-B*27:05; [8]): ≥ 20 µM
Kd (HLA-A*26:01; [8]): ≥ 20 µM
Kd (HLA-B*58:01; [8]): ≥ 20 µM
Kd (HLA-A*69:01 [1]; [8]): ≥ 20 µM
Kd (HLA-B*44:02; [8]): ≥ 20 µM
Kd (HLA-B*07:02; [8]): ≥ 20 µM
Kd (HLA-B*40:01; [8]): ≥ 20 µM
Kd (HLA-A*01:01; [8]): ≥ 20 µM
Kd (HLA-A*03:01; [8]): ≥ 20 µM
Kd (HLA-B*08:01; [8]): ≥ 20 µM
Kd (HLA-B*15:01 [2]; [8]): ≥ 20 µM
Kd (HLA-A*02:01 [3]; [8]): ≥ 20 µM
Kd (HLA-A*11:01; [8]): ≥ 20 µM
